Values quoted from earlier work in paper PMC2635555.

Target: Histone H3 (H3K4me0) N-terminal tail (Homo sapiens) (UniProt P68431)

AIRE PHD1, sequence (O43918 296-343): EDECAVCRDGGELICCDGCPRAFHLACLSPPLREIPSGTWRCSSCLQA

Substance: AIRE PHD1 (from UniProt O43918)
- Kd: 5 µM
